The results in this text go back to article doi:10.1101/2022.08.09.503292.

Where two headings read alike, the source gives them in different places.

Series [1] addresses mono-nucleosome with extra-nucleosomal linker DNA (185-bp '601'), Oregon green 488 on H2B D51C (NCP^185) (human) (UniProt Q6FI13). The experiment in a line: other fluorescence titration.
In a further series the target is BARD1 124-270 (UniProt Q99728 124-270). The experiment in a line: NMR.
Series [2] deals with T1, BARD1 141-216 (UniProt Q99728 141-216). The experiment in a line: NMR.
Series [3] has as its target T1, BARD1 141-216. The experiment in a line: NMR. This is another data set of the same source.

T1 sequence (Q99728 141-216): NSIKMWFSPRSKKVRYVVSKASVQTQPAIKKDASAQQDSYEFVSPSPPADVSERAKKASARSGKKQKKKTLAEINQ
Chain of BARD1 124-270 (Q99728 124-270): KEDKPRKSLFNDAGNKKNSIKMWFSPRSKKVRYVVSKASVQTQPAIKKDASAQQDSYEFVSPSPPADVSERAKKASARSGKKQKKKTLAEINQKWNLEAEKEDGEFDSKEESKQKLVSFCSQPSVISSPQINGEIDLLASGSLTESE

On to “BRCA1^RING/BARD1^216 heterodimer (from UniProt P38398 1-112; Q99728 1-216) (complex)”, for which the fold increase in binding affinity with linker DNA (NCP^185 against NCP^147) in series [1] was under 2 fold.

B1: 36-mer dsDNA (dsDNA)
DNA 1: CCTACGACGCCTGGGGTACCAGCGCAATTGTGTACC
DNA 2: GGTACACAATTGCGCTGGTACCCCAGGCGTCGTAGG
On to B1, for which the binding result in the series with BARD1 124-270 and in the series with BARD1 141-216 [2] was “binds” throughout.

B2: 36-mer bubble-DNA (mixed)
DNA 1: CCTACGACGCCTGGCTCTTTCCCGCAATTGTGTACC
DNA 2: B1 DNA 2
Consider B2, for which, in the series with BARD1 141-216 [3], the binding result is “binds”.
